Measured values reported in patent US20110118131A1 (published 2011).
Substitutions are numbered along the chain they refer to. Numbers in names are those of the source.

B1: XPA23 light chain D92F (Fab, V domains shown)
VH: EVQLLESGGGLVQPGGSLRLSCAASGFTFSKYFMFWVRQAPGKGLEWVSVISPSGGMTRYADSVKGRFTISRDNSKNTLYLQMNSLRAEDTAVYYCARVGYGGNSDYWGQGTLVTVSS
VL: DIQMTQSPSSVSASVGDRLTIICRASQDINRWLAWYQQTPGNAPKLLIHSATSLQSGVPSRFSGSGSGTDFTLTINSLQPEDFATYYCQQAFSFPLTFGGGTKVEIK
B2: XPA23 light chain L96F (Fab, V domains shown)
VH: B1 VH
VL: B1 VL with F92D, L96F
B3: XPA23 light chain L96N (Fab, V domains shown)
VH: B1 VH
VL: B1 VL with F92D, L96N
B4: XPA23 light chain D92W (Fab, V domains shown)
VH: B1 VH
VL: B1 VL with F92W
B5: XPA23 light chain D92S (Fab, V domains shown)
VH: B1 VH
VL: B1 VL with F92S
B6: XPA23 light chain L96S (Fab, V domains shown)
VH: B1 VH
VL: B1 VL with F92D, L96S
B7: XPA23 light chain D92N (Fab, V domains shown)
VH: B1 VH
VL: B1 VL with F92N
B8: XPA23 light chain H49E (Fab, V domains shown)
VH: B1 VH
VL: B1 VL with H49E, F92D
B9: XPA23 light chain H49R (Fab, V domains shown)
VH: B1 VH
VL: B1 VL with H49R, F92D
B10: XPA23 light chain D92H (Fab, V domains shown)
VH: B1 VH
VL: B1 VL with F92H
B11: XPA23 light chain H49D (Fab, V domains shown)
VH: B1 VH
VL: B1 VL with H49D, F92D
B12: XPA23 light chain L96D (Fab, V domains shown)
VH: B1 VH
VL: B1 VL with F92D, L96D
B13: XPA23 light chain H49L (Fab, V domains shown)
VH: B1 VH
VL: B1 VL with H49L, F92D
B14: XPA23 light chain F94Q (Fab, V domains shown)
VH: B1 VH
VL: B1 VL with F92D, F94Q
B15: XPA23 light chain H49T (Fab, V domains shown)
VH: B1 VH
VL: B1 VL with H49T, F92D
B16: XPA23 light chain F94D (Fab, V domains shown)
VH: B1 VH
VL: B1 VL with F92D, F94D
B17: XPA23 light chain F94E (Fab, V domains shown)
VH: B1 VH
VL: B1 VL with F92D, F94E
B18: XPA23 light chain H49S (Fab, V domains shown)
VH: B1 VH
VL: B1 VL with H49S, F92D
B19: XPA23 light chain H49W (Fab, V domains shown)
VH: B1 VH
VL: B1 VL with H49W, F92D
B20: XPA23 light chain H49Q (Fab, V domains shown)
VH: B1 VH
VL: B1 VL with H49Q, F92D
B21: XPA23 light chain H49P (Fab, V domains shown)
VH: B1 VH
VL: B1 VL with H49P, F92D
B22: XPA23 light chain H49A (Fab, V domains shown)
VH: B1 VH
VL: B1 VL with H49A, F92D
B23: XPA23 light chain F94S (Fab, V domains shown)
VH: B1 VH
VL: B1 VL with F92D, F94S
B24: XPA23 light chain H49F (Fab, V domains shown)
VH: B1 VH
VL: B1 VL with H49F, F92D
B25: XPA23 light chain H49I (Fab, V domains shown)
VH: B1 VH
VL: B1 VL with H49I, F92D
B26: XPA23 light chain F94Y (Fab, V domains shown)
VH: B1 VH
VL: B1 VL with F92D, F94Y
B27: XPA23 light chain H49G (Fab, V domains shown)
VH: B1 VH
VL: B1 VL with H49G, F92D
B28: XPA23 light chain D92R (Fab, V domains shown)
VH: B1 VH
VL: B1 VL with F92R
B29: XPA23 light chain F94K (Fab, V domains shown)
VH: B1 VH
VL: B1 VL with F92D, F94K
B30: XPA23 light chain L96Q (Fab, V domains shown)
VH: B1 VH
VL: B1 VL with F92D, L96Q
B31: XPA23 light chain F94R (Fab, V domains shown)
VH: B1 VH
VL: B1 VL with F92D, F94R
B32: XPA23 light chain F94W (Fab, V domains shown)
VH: B1 VH
VL: B1 VL with F92D, F94W
B33: XPA23 light chain D92Q (Fab, V domains shown)
VH: B1 VH
VL: B1 VL with F92Q
B34: XPA23 light chain L96W (Fab, V domains shown)
VH: B1 VH
VL: B1 VL with F92D, L96W
B35: XPA23 light chain L96R (Fab, V domains shown)
VH: B1 VH
VL: B1 VL with F92D, L96R
B36: XPA23 light chain D92Y (Fab, V domains shown)
VH: B1 VH
VL: B1 VL with F92Y
B37: XPA23 light chain L96H (Fab, V domains shown)
VH: B1 VH
VL: B1 VL with F92D, L96H
B38: XPA23 light chain H49K (Fab, V domains shown)
VH: B1 VH
VL: B1 VL with H49K, F92D
B39: XPA23 light chain D92K (Fab, V domains shown)
VH: B1 VH
VL: B1 VL with F92K
B40: XPA23 light chain L96E (Fab, V domains shown)
VH: B1 VH
VL: B1 VL with F92D, L96E
B41: XPA23 light chain F94H (Fab, V domains shown)
VH: B1 VH
VL: B1 VL with F92D, F94H
B42: XPA23 light chain H49N (Fab, V domains shown)
VH: B1 VH
VL: B1 VL with H49N, F92D
B43: XPA23 light chain H49Y (Fab, V domains shown)
VH: B1 VH
VL: B1 VL with H49Y, F92D
B44: XPA23 light chain F94N (Fab, V domains shown)
VH: B1 VH
VL: B1 VL with F92D, F94N
B45: XPA23 light chain H49V (Fab, V domains shown)
VH: B1 VH
VL: B1 VL with H49V, F92D
B46: XPA23 light chain L96K (Fab, V domains shown)
VH: B1 VH
VL: B1 VL with F92D, L96K

Each binder was assayed against T1, IL-1β (UniProt P01584 117-269) (assay: Biacore, periplasmic extract).
T1 construct: Antigen immobilised on the Biacore chip

| fold difference in affinity vs original [fold] | binding result | Binder |
| --- | --- | --- |
| 0.26 | – | B1 |
| 0.28 | – | B2 |
| 0.06 | – | B3 |
| 0.12 | – | B4 |
| 6.59 | – | B5 |
| 0.23 | – | B6 |
| 0.67 | – | B7 |
| – | no binding | B8 |
| 0.21 | – | B9 |
| 0.63 | – | B10 |
| 0.11 | – | B11 |
| – | no binding | B12 |
| 0.07 | – | B13 |
| – | no binding | B14 |
| – | no binding | B15 |
| – | no binding | B16 |
| – | no binding | B17 |
| 0.14 | – | B18 |
| 0.21 | – | B19 |
| – | no binding | B20 |
| 0.86 | – | B21 |
| 0.23 | – | B22 |
| – | no binding | B23 |

| fold difference in affinity vs original [fold] | binding result | Binder |
| --- | --- | --- |
| 0.5 | – | B24 |
| – | no binding | B25 |
| – | no binding | B26 |
| – | no binding | B27 |
| – | no binding | B28 |
| – | no binding | B29 |
| 0.21 | – | B30 |
| – | no binding | B31 |
| – | no binding | B32 |
| 0.56 | – | B33 |
| 4.49 | – | B34 |
| – | no binding | B35 |
| – | no binding | B36 |
| 0.07 | – | B37 |
| 0.1 | – | B38 |
| 0.23 | – | B39 |
| – | no binding | B40 |
| – | no binding | B41 |
| 0.31 | – | B42 |
| 0.52 | – | B43 |
| – | no binding | B44 |
| – | no binding | B45 |
| – | no binding | B46 |
